Measured values reported in US20230203469A1.

What was measured:
[1] = molecular target: T1, FRETS-VWF73 substrate, P04275
T1 chain: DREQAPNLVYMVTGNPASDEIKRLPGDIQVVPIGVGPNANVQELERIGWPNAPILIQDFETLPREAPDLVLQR

[2] = molecular target: recombinant VWF (full-length, multimeric rVWF), P04275
[3] = molecular target: von Willebrand factor (VWF), substrate of the in vitro cleavage of Table 1, P04275

B1: Q97R ADAMTS13 variant (protein)
chain: AAGGILHLELLVAVGPDVFQAHREDTERYVLTNLNIGAELLRDPSLGAQFRVHLVKMVILTEPEGAPNITANLTSSLLSVCGWSQTINPEDDTDPGHADLVLYITRFDLELPDGNRQVRGVTQLGGACSPTWSCLITEDTGFDLGVTIAHEIGHSFGLEHDGAPGSGCGPSGHVMASDGAAPRAGLAWSPCSRRQLLSLLSAGRARCVWDPPRPQPGSAGHPPDAQPGLYYSANEQCRVAFGPKAVACTFAREHLDMCQALSCHTDPLDQSSCSRLLVPLLDGTECGVEKWCSKGRCRSLVELTPIAAVHGRWSSWGPRSPCSRSCGGGVVTRRRQCNNPRPAFGGRACVGADLQAEMCNTQACEKTQLEFMSQQCARTDGQPLRSSPGGASFYHWGAAVPHSQGDALCRHMCRAIGESFIMKRGDSFLDGTRCMPSGPREDGTLSLCVSGSCRTFGCDGRMDSQQVWDRCQVCGGDNSTCSPRKGSFTAGRAREYVTFLTVTPNLTSVYIANHRPLFTHLAVRIGGRYVVAGKMSISPNTTYPSLLEDGRVEYRVALTEDRLPRLEEIRIWGPLQEDADIQVYRRYGEEYGNLTRPDITFTYFQPKPRQAWVWAAVRGPCSVSCGAGLRWVNYSCLDQARKELVETVQCQGSQQPPAWPEACVLEPCPPYWAVGDFGPCSASCGGGLRERPVRCVEAQGSLLKTLPPARCRAGAQQPAVALETCNPQPCPARWEVSEPSSCTSAGGAGLALENETCVPGADGLEAPVTEGPGSVDEKLPAPEPCVGMSCPPGWGHLDATSAGEKAPSPWGSIRTGAQAAHVWTPAAGSCSVSCGRGLMELRFLCMDSALRVPVQEELCGLASKPGSRREVCQAVPCPARWQYKLAACSVSCGRGVVRRILYCARAHGEDDGEEILLDTQCQGLPRPEPQEACSLEPCPPRWKVMSLGPCSASCGLGTARRSVACVQLDQGQDVEVDEAACAALVRPEASVPCLIADCTYRWHVGTWMECSVSCGDGIQRRRDTCLGPQAQAPVPADFCQHLPKPVTVRGCWAGPCVGQGTPSLVPHEEAAAPGRTTATPAGASLEWSQARGLLFSPAPQPRRLLPGPQENSVQSSACGRQHLEPTGTIDMRGPGQADCAVAIGRPLGEVVTLRVLESSLNCSAGDMLLLWGRLTWRKMCRKLLDMTFSSKTNTLVVRQRCGRPGGGVLLRYGSQLAPETFYRECDMQLFGPWGEIVSPSLSPATSNAGGCRLFINVAPHARIAIHALATNMGAGTEGANASYILIRDTHSLRTTAFHGQQVLYWESESSQAEMEFSEGFLKAQASLRGQYWTLQSWVPEMQDPQSWKGKEGT
With B1 the Specific rADAMTS13 activity (activity per total protein by UV) [1] was 1740 IU/mg, the rADAMTS13 Activity (FRETS VWF73) [1] was 1370 IU/mL and the “specific activity (FRETS U/mg UV protein) against share of Q97R, regression” value [1] was “suggesting that the Q^97R rADAMTS13 variant has similar activity to that of wildtype ADAMTS13”. The “Degradation of full-length rVWF under denaturing conditions (VWF multimer analysis)” value [2] was “Comparable”.

B2: plasma derived ADAMTS13 (pdADAMTS13) (protein)
chain: AAGGILHLELLVAVGPDVFQAHQEDTERYVLTNLNIGAELLRDPSLGAQFRVHLVKMVILTEPEGAPNITANLTSSLLSVCGWSQTINPEDDTDPGHADLVLYITRFDLELPDGNRQVRGVTQLGGACSPTWSCLITEDTGFDLGVTIAHEIGHSFGLEHDGAPGSGCGPSGHVMASDGAAPRAGLAWSPCSRRQLLSLLSAGRARCVWDPPRPQPGSAGHPPDAQPGLYYSANEQCRVAFGPKAVACTFAREHLDMCQALSCHTDPLDQSSCSRLLVPLLDGTECGVEKWCSKGRCRSLVELTPIAAVHGRWSSWGPRSPCSRSCGGGVVTRRRQCNNPRPAFGGRACVGADLQAEMCNTQACEKTQLEFMSQQCARTDGQPLRSSPGGASFYHWGAAVPHSQGDALCRHMCRAIGESFIMKRGDSFLDGTRCMPSGPREDGTLSLCVSGSCRTFGCDGRMDSQQVWDRCQVCGGDNSTCSPRKGSFTAGRAREYVTFLTVTPNLTSVYIANHRPLFTHLAVRIGGRYVVAGKMSISPNTTYPSLLEDGRVEYRVALTEDRLPRLEEIRIWGPLQEDADIQVYRRYGEEYGNLTRPDITFTYFQPKPRQAWVWAAVRGPCSVSCGAGLRWVNYSCLDQARKELVETVQCQGSQQPPAWPEACVLEPCPPYWAVGDFGPCSASCGGGLRERPVRCVEAQGSLLKTLPPARCRAGAQQPAVALETCNPQPCPARWEVSEPSSCTSAGGAGLALENETCVPGADGLEAPVTEGPGSVDEKLPAPEPCVGMSCPPGWGHLDATSAGEKAPSPWGSIRTGAQAAHVWTPAAGSCSVSCGRGLMELRFLCMDSALRVPVQEELCGLASKPGSRREVCQAVPCPARWQYKLAACSVSCGRGVVRRILYCARAHGEDDGEEILLDTQCQGLPRPEPQEACSLEPCPPRWKVMSLGPCSASCGLGTARRSVACVQLDQGQDVEVDEAACAALVRPEASVPCLIADCTYRWHVGTWMECSVSCGDGIQRRRDTCLGPQAQAPVPADFCQHLPKPVTVRGCWAGPCVGQGTPSLVPHEEAAAPGRTTATPAGASLEWSQARGLLFSPAPQPRRLLPGPQENSVQSSACGRQHLEPTGTIDMRGPGQADCAVAIGRPLGEVVTLRVLESSLNCSAGDMLLLWGRLTWRKMCRKLLDMTFSSKTNTLVVRQRCGRPGGGVLLRYGSQLAPETFYRECDMQLFGPWGEIVSPSLSPATSNAGGCRLFINVAPHARIAIHALATNMGAGTEGANASYILIRDTHSLRTTAFHGQQVLYWESESSQAEMEFSEGFLKAQASLRGQYWTLQSWVPEMQDPQSWKGKEGT
For B2, the “specific activity (FRETS U/antigen U), compared with mixed rADAMTS13 batches” value [1] was “the average specific activity of the mixed rADAMTS13 batches is comparable with the specific activity of pdADAMTS13”, the IU VWF RCo/ml left; ADAMTS13 0.1 U/ml, 0 h (IU VWF RCo/ml) [3] was 0.75 and the IU VWF RCo/ml left; ADAMTS13 0.1 U/ml, 15 seconds (IU VWF RCo/ml) [3] was 0.38. The IU VWF RCo/ml left; ADAMTS13 0.1 U/ml, 30 seconds (IU VWF RCo/ml) [3] was 0.37, the IU VWF RCo/ml left; ADAMTS13 0.1 U/ml, 1 minute (IU VWF RCo/ml) [3] was 0.21 and the IU VWF RCo/ml left; ADAMTS13 0.1 U/ml, 2 minutes (IU VWF RCo/ml) [3] was < 0.17. The IU VWF RCo/ml left; ADAMTS13 0.1 U/ml, 5 minutes (IU VWF RCo/ml) [3] was < 0.17, the IU VWF RCo/ml left; ADAMTS13 0.5 U/ml, 0 h (IU VWF RCo/ml) [3] was 0.78 and the IU VWF RCo/ml left; ADAMTS13 0.5 U/ml, 15 seconds (IU VWF RCo/ml) [3] was < 0.17. The IU VWF RCo/ml left; ADAMTS13 0.5 U/ml, 30 seconds (IU VWF RCo/ml) [3] was < 0.17, the IU VWF RCo/ml left; ADAMTS13 0.5 U/ml, 1 minute (IU VWF RCo/ml) [3] was < 0.17 and the IU VWF RCo/ml left; ADAMTS13 0.5 U/ml, 2 minutes (IU VWF RCo/ml) [3] was < 0.17. The IU VWF RCo/ml left; ADAMTS13 0.5 U/ml, 5 minutes (IU VWF RCo/ml) [3] was < 0.17, the IU VWF RCo/ml left; ADAMTS13 1.0 U/ml, 0 h (IU VWF RCo/ml) [3] was 0.26 and the IU VWF RCo/ml left; ADAMTS13 1.0 U/ml, 15 seconds (IU VWF RCo/ml) [3] was < 0.17. The IU VWF RCo/ml left; ADAMTS13 1.0 U/ml, 30 seconds (IU VWF RCo/ml) [3] was < 0.17, the IU VWF RCo/ml left; ADAMTS13 1.0 U/ml, 1 minute (IU VWF RCo/ml) [3] was < 0.17 and the IU VWF RCo/ml left; ADAMTS13 1.0 U/ml, 2 minutes (IU VWF RCo/ml) [3] was < 0.17. For the same protein, the IU VWF RCo/ml left; ADAMTS13 1.0 U/ml, 5 minutes (IU VWF RCo/ml) [3] was < 0.17.
